Laboratory results published in US20260183373.

Key:
Aβ(1-40) = Aβ(1-40) (UniProt P05067)
Aβ(1-42) = Aβ(1-42) (UniProt P05067)

MMP2, sequence (P08253 110-660): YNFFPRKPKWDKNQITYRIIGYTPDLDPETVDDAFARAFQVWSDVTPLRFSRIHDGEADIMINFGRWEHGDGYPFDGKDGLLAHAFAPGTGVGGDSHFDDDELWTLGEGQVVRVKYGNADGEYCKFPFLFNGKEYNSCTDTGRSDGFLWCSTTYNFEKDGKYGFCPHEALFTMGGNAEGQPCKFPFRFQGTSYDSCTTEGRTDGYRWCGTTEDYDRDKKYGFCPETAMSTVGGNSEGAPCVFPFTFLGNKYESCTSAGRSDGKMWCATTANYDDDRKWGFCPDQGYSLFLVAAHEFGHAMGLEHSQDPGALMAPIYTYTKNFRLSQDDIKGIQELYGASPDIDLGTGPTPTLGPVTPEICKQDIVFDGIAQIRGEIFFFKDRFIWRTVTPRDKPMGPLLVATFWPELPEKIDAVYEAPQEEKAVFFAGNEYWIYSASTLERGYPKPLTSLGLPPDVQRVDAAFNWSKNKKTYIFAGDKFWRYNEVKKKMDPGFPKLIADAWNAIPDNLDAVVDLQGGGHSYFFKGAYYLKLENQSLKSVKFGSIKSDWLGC

| Substance | stated: cleaves; Aβ cleavage assay, intact Aβ by ELISA (% untreated) (Aβ(1-40)) | stated: cleaves; Aβ cleavage assay, intact Aβ by ELISA (% untreated) (Aβ(1-42)) |
| --- | --- | --- |
| MTSP1 | about 100 % up to about 30 nM, about 70 % near 100 nM, about 35 % near 300 nM, about 13 % at the highest concentration (about 1000 nM), no lower plateau | about 100 % up to about 10 nM, about 70 % near 100 nM, about 47 % near 300 nM, about 20 % at the highest concentration (about 1000 nM), no lower plateau |
| NEP2 | stays near 100 % up to about 10 nM, about 60 % near 30 nM, about 25 % near 100 nM, about 0 % from about 300 nM | stays near 90 % up to about 10 nM, about 60 % near 30 nM, about 35 % near 100 nM, about 0 % at the highest concentration (about 1000 nM) |
| MMP9 | about 100 % up to about 30 nM, about 80 % near 100 nM, about 40 % near 300 nM, about 10 % at the highest concentration (about 1000 nM), no lower plateau | about 80 % up to about 30 nM, about 60 % near 100 nM, about 35 % near 300 nM, below 10 % at the highest concentration (about 1000 nM), no lower plateau |
| MMP2 | about 105 % up to about 30 nM, about 45 % near 100 nM, about 0 % from about 300 nM | drifts from about 90 % to about 65 % between 0.01 and 30 nM (no flat upper plateau), about 40 % near 100 nM, about 0 % from about 300 nM |
| ECE1 | near 100 % up to about 10 nM, falls to about 30 % at the highest concentration (about 1000 nM), no lower plateau | near 100 % up to about 10 nM, falls only to about 60 % at the highest concentration (about 1000 nM), no lower plateau |
